This series is described as follows: yeast display, Sf9 membrane polyspecificity reagent, FACS + sequencing; frameworks hold sequencing errors. The method in brief: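 A synthetic nanobody library was expressed on Saccharomyces cerevisiae BJ5465 by galactose induction for 36–48 hours. The library was stained for 1 hour at 4 °C with 10% biotinylated, detergent-solubilized Sf9 membrane reagent and enriched with streptavidin microbeads before FACS. Low and high (top ~1%) gates were set on anti-HA fluorescence for expression and streptavidin fluorescence for reagent binding, and each polyreactivity label reflects the gate of origin.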
Take “QVQLVESGGGLVQAGGSLRLSCAASGSIFYFNAMGWYRQAPGKERELVAAISTSGGSTYADSVKGRFTISRDNAKNTVYLQMNSLKPEDTAVYYCAADYLTSRSRTFDYWGQGTQVTVSS”: the “polyreactivity (PSR sort gate)” value is listed as “low polyreactivity”. The same measure for “QVQLVESGGGLVQAGGSLRLSCAASGSIFYFNAMGWYRQAPGKERELVATIRSGDGRTYYADSVKGRFTISRDNAKNTVYLQMNSLKPEDTAVYYCNASRVVYRQAYLYGYDYWGQGTQVTVSS”: “low polyreactivity”; for “QVQLVESGGGLVQAGGSLRLSCAASGSIFYFYAMGGYRQAPGKERELVAAIRSSDGITYYADSVKGRFTISRDNAKNTVYLQMNSLKPEDTAVYYCAALVRDFYNWDTLYYWGQGTQVTVSS”: “low polyreactivity”; for “QVQLVESGGGLVQAGGSLRLSCAASGSIFYFYAMGWYRQAPGKERELVAAISSRGTSTYYADSVKGRFTISRDNAKNTVYLQMNSLKPEDTAVYYCAAQIYVYYQRRPPYDYWGQGTQVTVSS”: “high polyreactivity”. To “QVQLVESGGGLVQAGGSLRLSCAASGSIFYGNAMGWYRQAPGKERELVAAISGSGGRTYYADSVKGRFTISRDNAKNTVYLQMISLKTEDTAVYYCAASAPGGQDDYWGQGTQVTVSS” belongs “high polyreactivity”; to “QVQLVESGGGLVQAGGSLRLSCAASGSIFYGNAMGWYRQAPGKERELVAAISQSGSRTYYADSVKGRFTISRDNAKNTVYLQMNSLKPEDTAVYYCAARARIYNYWGQGTQVTVSS”, “high polyreactivity”.

Turning to “QVQLVESGGGLVQAGGSLRLSCAASGSIFYGNAMGWYRQAPGKERELVAAISTRGGSTYYADSVKGRFTISRDYAKNTVYLQMNSLKPEDTAVYYCNADSRRRLFDYWGQGTQVTVSS”, the “polyreactivity (PSR sort gate)” value is “high polyreactivity”. To “QVQLVESGGGLVQAGGSLRLSCAASGSIFYGYAMGWYRQAPGKEREFVAGIDSSGGSTSYADSVKGRFTISRDNAKNTVYLQMNSLKPEDTAVYYCAKQIVSGRRVDRNDYWGQGTQVTVSS” belongs “low polyreactivity”; to “QVQLVESGGGLVQAGGSLRLSCAASGSIFYGYAMGWYRQAPGKERELVAAISLSGGRTYYADSVKGRFTLSRDNAKNPVYLQRNSLKPEDTAVYYCAAQTRSSDGPSWYYYWGQGTQVTVSS”, “high polyreactivity”; to “QVQLVESGGGLVQAGGSLRLSCAASGSIFYGYAMGWYRQAPGKERELVASITGSGGSTSYADSVKGRFTISRDNAKNTVYLQMNSLKPEDTAVYYCNTVLLQLYKLASGYDYWGQGTQVTVSS”, “high polyreactivity”. Consider “QVQLVESGGGLVQAGGSLRLSCAASGSIFYGYTMGWYRQAPGKERELVAGITRSGTSTYYADSVKGRFTISRDNAKNTVYLQMNSLNPQDTAVYYCARVGLSKRYGSWGQGTEVTVSS”, for which the “polyreactivity (PSR sort gate)” value is “high polyreactivity”. With “QVQLVESGGGLVQAGGSLRLSCAASGSIFYHYAMGWYIQAPGKERELVAAISWRGASTYYADSVKGRFTISRDNAKNTVYLQMNSLKPEDTAVYYCARLSSSHPLYRDDYWGQGTQVTVSS”, the “polyreactivity (PSR sort gate)” value is recorded as “high polyreactivity”. The same measure for “QVQLVESGGGLVQAGGSLRLSCAASGSIFYHYAMGWYRQAPGKDRELVADITQSGGTTDYADSVKGRFTISRYNAKNTVYLQMNSLKPEDTAVYYCAADGDTTSPTYYIFWSGEFDYWGQGNQVTVSS”: “low polyreactivity”; for “QVQLVESGGGLVQAGGSLRLSCAASGSIFYHYAMGWYRQAPGKERELVAAISRSGGRTYYADSVKGRFTISRDNAKNTVYLQMNSLKPEDTAVYYCAAGTSWPWYQRDYWGQGTQVTVSS”: “low polyreactivity”. Take “QVQLVESGGGLVQAGGSLRLSCAASGSIFYINAMGWYRQAPGKEREFVATITWSGDSTYYADSVKGRFTISRDNAKNTVYLQMNSLKPDDTAVYYCNARKQYPSYVDWEYDYWGQGTQVTVSS”: the “polyreactivity (PSR sort gate)” value is given as “low polyreactivity”.

For the sequence “QVQLVESGGGLVQAGGSLRLSCAASGSIFYINAMGWYRQAPGKERELGAAITSDGSTYYADSVKGRFTISRDKAKHTVYLQMNSLKPEDTAVYYCAADLTSDQFLYYWYWFYSWGQGTQVTVSS”, the “polyreactivity (PSR sort gate)” value is on record as “low polyreactivity”. The same measure for “QVQLVESGGGLVQAGGSLRLSCAASGSIFYINAMGWYRQAPGKERELVAAINRGGSTNYADSVKGRFTISRDNAKNTVYLQMYSLKPEDTAVYYCAAYIYKTYRYYYWGQGTQVTVSS”: “high polyreactivity”; for “QVQLVESGGGLVQAGGSLRLSCAASGSIFYINPMGWYRQAPGKERELVAAINFSDGRTYYADSVKGRFTISRDNAKNTVYLQMNSLKPEDTAVYYCAAAVYPSEYDYWGQGTQVTVSS”: “low polyreactivity”. The same measure for “QVQLVESGGGLVQAGGSLRLSCAASGSIFYINTMGWYRQAPGKEREMVATIRTSGGSTYADSVKGRFTISRDNAKNTVYLQMNSLKPEDTAVYYCAVRRYRSSSYGYYSWGQGTQVTVSS”: “high polyreactivity”; for “QVQLVESGGGLVQAGGSLRLSCAASGSIFYKNAMGWYRQAPGKVRELVAAITGSGGRTYYADSVKGRFTISRDNAKNTVYLQMNSLKPEDTAVYYCNTDPSPRYRYDYWGQGTQVTVSS”: “high polyreactivity”. To “QVQLVESGGGLVQAGGSLRLSCAASGSIFYKNVMGWYRQAPGKEREFVAAISSSGGSTYYADSVKGRFTISRDNAKNTVYLQMNSLKPEDTAVYYCAATGWGLFRRRYDYWGQGTQVTVSS” belongs “low polyreactivity”; to “QVQLVESGGGLVQAGGSLRLSCAASGSIFYKYALGWYRQAPGKERELVASITWSDGNTNYADSVKGRFTISRDNAKNTVYLQMNSLKPEDTAVYYCADGGWYPTSRIFDYWGQGTQVTVSS”, “low polyreactivity”. On to “QVQLVESGGGLVQAGGSLRLSCAASGSIFYKYAMGWYRQAPGKERELVAAISTSGGSTYYADSVKGRFTISRDNAKNTVYLQMNSLKPEDTAVYYCAKARSYGLGRSYYWGQGTQVTVSS”, for which the “polyreactivity (PSR sort gate)” value is “high polyreactivity”. Consider “QVQLVESGGGLVQAGGSLRLSCAASGSIFYKYMGWYRQAPGKERELVAAITWSGGSTYYADSVKGRFTISRDNAKNTVYLQMNSLKPEDTAVYYCAARDYTRYGYGYWGQGTQVTVSS”, for which the “polyreactivity (PSR sort gate)” value is “high polyreactivity”. Consider “QVQLVESGGGLVQAGGSLRLSCAASGSIFYLYAMGWYRHAPGKERELVATITVSGSSTYADSVKGRFTISRDNAKNTVYLQMISLKPEDTAVYYCAADGGRQVYTQLYDYWGQGTQVTVSS”, for which the “polyreactivity (PSR sort gate)” value is “low polyreactivity”. The same measure for “QVQLVESGGGLVQAGGSLRLSCAASGSIFYLYAMGWYRPAPGKERELVAAISSGGSTYYADSVKGRFTISRDNAKNTVYLQMNSLKPEDTAVYYCNADSYYYPYDYWGQGTQVTVSS”: “low polyreactivity”; for “QVQLVESGGGLVQAGGSLRLSCAASGSIFYLYAMGWYRQAPGKERELVAAINFRGGSTYADSVKGRFTISRDNAKNTVYLQMNSLKPEDTAVYYCAAKADYRMNYWGQGTQVTVSS”: “high polyreactivity”; for “QVQLVESGGGLVQAGGSLRLSCAASGSIFYLYAMGWYRQAPGKERELVARITWSGGRTFYADSVKGRFTISRDNAKNTVYLQMNSLKPEDTAVYYCNARYHGKYDYWGQGTQVTVSS”: “high polyreactivity”.

With “QVQLVESGGGLVQAGGSLRLSCAASGSIFYLYAMGWYRQAPGKERELVATISLSSGSTYAASVKGRFTISRDNAKNTVYLQMNSLKPEDTAVDYCAKDLTRWGYNEYDYWGQGTQVSVSS”, the “polyreactivity (PSR sort gate)” value was “low polyreactivity”. The same measure for “QVQLVESGGGLVQAGGSLRLSCAASGSIFYLYTMGWYRQATRKERELVAGISNGDRTYYADSVKGRFTISRDNAKNTVYFQMNSLKPEDTAVYYCAKGWYRIKRNDYWGQGTQVTVAS”: “low polyreactivity”; for “QVQLVESGGGLVQAGGSLRLSCAASGSIFYLYVMGWYRQAPGKERELVAAINWSGSRTYYADSVKGRFTISRDNAKNTVYLQMNSLKPEDTAVYYCNAVRATGQASQEGEYWGQGTQVTVSS”: “high polyreactivity”; for “QVQLVESGGGLVQAGGSLRLSCAASGSIFYNNSKGWYRPAPGKERELVAAISLRGGSTYYADSVKGRFTISRDNAKNTVYLQMNSLKPEDSAVYYCAAVTGARYYPARASRGKFDYWGQGTQVTVSS”: “high polyreactivity”. In the case of “QVQLVESGGGLVQAGGSLRLSCAASGSIFYNYAMGWSRQAPGKERELVAAITANTGSTYYADSVKGRFTISRVNAKNTVYLQMNSLKPEDTAVYYCATTWTIRRYRYSPRLVDYWGQGTQVTVSS”, the “polyreactivity (PSR sort gate)” value was “low polyreactivity”.

For “QVQLVESGGGLVQAGGSLRLSCAASGSIFYNYAMGWYRQAPGKERELVAAISQSGGSTRYADSVKGRFTISRDNAKNTVYVQMNSLKPEDTAVYYCAASRRKGQGSAGFGYWGQGTQVTVSS”, the “polyreactivity (PSR sort gate)” value is “high polyreactivity”.

As for “QVQLVESGGGLVQAGGSLRLSCAASGSIFYNYAMGWYRQAPGKERELVAAISSNGGSTYYADSVKGRFTISRDNAKNTVYLQMNSLKPEDTAVYYCAKYLSPGERHSYDYWGQGTQVTVSS”, the “polyreactivity (PSR sort gate)” value is “high polyreactivity”.

With “QVQLVESGGGLVQAGGSLRLSCAASGSIFYNYGMGWYRQAPGKERELVAAIRASGDSTYYADSVKGRFTISRDNAKNTVYLQMNSLKPEDTAVYYCAARPNQSYYGLYFYWGQGTQVTVSS”, the “polyreactivity (PSR sort gate)” value is “low polyreactivity”. To “QVQLVESGGGLVQAGGSLRLSCAASGSIFYPNAMGWYRQAPGKERELVAAISSSGGTNYADSVKGRFTISRDNAKNTVYLQMNSLKPEDTAVYYCNARDKVRYRYSRMDYWGQGTQVTVSS” belongs “low polyreactivity”; to “QVQLVESGGGLVQAGGSLRLSCAASGSIFYPNAMGWYRQAPGKERELVAAITTGGSTNYADSVKGRFTISRDNAKNTVYLQMNSLKPEDTAVYYCNARHRYHSYTQPRWKYDYWGQGTQVTVSS”, “low polyreactivity”; to “QVQLVESGGGLVQAGGSLRLSCAASGSIFYPYAMGWYRPAPGKERELVASITINDGSTYYADSVKGRFTISRDNAKNTVYLQMNSLKPEDTAVYYCNVEPVPGFGSEYEYWGQGTQVTVSS”, “low polyreactivity”. For the sequence “QVQLVESGGGLVQAGGSLRLSCAASGSIFYPYAMGWYRQAPGKERELVAAIDYSDGSTYYADSVKGRFTISRDNAKNTVYLQMNSLKPEDTAVYYCAADGTYVWGSEEGNYWGQGTQVTVSS”, the “polyreactivity (PSR sort gate)” value is “low polyreactivity”.

Consider “QVQLVESGGGLVQAGGSLRLSCAASGSIFYPYAMGWYRQAPGKERELVAAIRWRGGNTYYADSVKGRFTFSRDNAKNTVYLQMNSLKPEDTAVYYCAADGKYLQGFGYYYWGQGTQVTVSS”, for which the “polyreactivity (PSR sort gate)” value is listed as “high polyreactivity”.

The values above are taken from the nanobody polyreactivity screen of Harvey et al. (2022).
